Test results from patent US20060251652A1 (APPLIED MOLECULAR EVOLUTION, published 2006).

Molecular target: T1, human CD20 (human, UniProt P11836 1-297)
T1 construct: whole, on cells; Always presented on cells (fixed Ramos cells in ELISA; live cells in flow cytometry and KinExA-type assays); also called hCD20; Bp35
T1 sequence (looked up): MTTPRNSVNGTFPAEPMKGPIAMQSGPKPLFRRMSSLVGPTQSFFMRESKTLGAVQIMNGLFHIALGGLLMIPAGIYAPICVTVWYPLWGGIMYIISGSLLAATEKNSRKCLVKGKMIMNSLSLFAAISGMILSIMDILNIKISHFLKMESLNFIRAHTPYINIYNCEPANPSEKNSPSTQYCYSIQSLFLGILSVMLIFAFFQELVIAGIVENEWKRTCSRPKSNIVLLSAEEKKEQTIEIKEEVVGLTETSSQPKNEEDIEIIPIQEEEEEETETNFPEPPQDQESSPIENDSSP
Assay: ELISA on formalin-fixed Ramos cells, off-rate format: after the Fab incubation the plate stood overnight in PBS/BSA before anti-His6 peroxidase, OD 450
Description: Ramos cells (ATCC) were grown in RPMI 1640 containing 10% heat inactivated Fetal Bovine Serum. […] Media was gently aspirated and […] of aqueous buffered zinc formalin (Anatech, Ltd.) was added to each well for 15 minutes at room temperature. Z-fix was removed and the plate was washed with phosphate-buffered saline (PBS) containing 0.05% Tween 20. The plate was blocked for 1 hour with 1% bovine serum albumin (BSA) in PBS. Dilutions of Fab or IgG were incubated with the fixed and blocked Ramos cells for 1 hour at room temperature. The plate was washed 3× with PBS 0.05% Tween […] of anti-His6 Peroxidase Mouse Monoclonal Antibody (Roche Diagnostics Corporation) at a 1:500 dilution were added to the wells and incubated 1 hour at room temperature. The plate was washed as above and developed with tetramethyl benzidine, and the reaction was stopped with 5N H₂SO₄. The plate absorbance was read at OD 450 nm. Dilutions of Fab and conjugate were in 1% BSA/PBS.
IgG assays were performed similarly except IgG bound was detected with goat anti-human IgG-HRP. To compare antibody off-rate, after incubation with Fab or IgG the plates were incubated over night in PBS/BSA, before proceeding with the second antibody step. To compare antibody on-rate, incubation steps for Fab/IgG binding and with the second antibody were both of 5 minutes duration.

B1: AME 33 Fab (Fab, V domains shown)
VH: EVQLVQSGAEVKKPGESLKISCKGSGRTFTSYNMHWVRQMPGKGLEWMGAIYPLTGDTSYNQKSKLQVTISADKSISTAYLQWSSLKASDTAMYYCARSTYVGGDWQFDVWGKGTTVTVSS
VL: EIVLTQSPGTLSLSPGERATLSCRASSSVPYIHWYQQKPGQAPRLLIYATSALASGIPDRFSGSGSGTDFTLTISRLEPEDFAVYYCQQWLSNPPTFGQGTKLEIK
notes: Fab
EC50 (read off the curve): ~0.3 µg/mL
